In publication PMC6258048:
Where two headings read alike, the source gives them in different places.

T1: Tcf3 B-HLH domain (E47);Ascl1 B-HLH domain (;, UniProt P15806-2;Q02067 ;, |)
T1 sequence 1: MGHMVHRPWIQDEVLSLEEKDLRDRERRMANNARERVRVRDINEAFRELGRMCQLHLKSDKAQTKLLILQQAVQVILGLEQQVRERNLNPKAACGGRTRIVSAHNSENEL
T1 sequence 2: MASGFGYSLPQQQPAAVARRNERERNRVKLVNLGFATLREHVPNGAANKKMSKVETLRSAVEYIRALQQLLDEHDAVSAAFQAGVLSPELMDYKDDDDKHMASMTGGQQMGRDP

T2: Ascl1 B-HLH domain (UniProt Q02067)
T2 sequence: T1 sequence 2

T3: Tcf3 B-HLH domain (E47) (UniProt P15806-2)
T3 sequence: T1 sequence 1

B1: weak E-box CGCAA|ATG 28-mer C(a)|C(b) (dsDNA)
DNA 1: CTGACCCATACGCAAATGTCTGACTGAC
DNA 2: GTCAGTCAGACATTTGCGTATGGGTCAG
B2: CGCAG|GTG 28-mer 5caC(a)|5caC(b) (dsDNA)
DNA 1: CTGACCGATACGCAGGTGCCTGACTGAC
DNA 2: GTCAGTCAGGCACCTGCGTATCGGTCAG
modifications: 5caC at C11 of strand 1 and C17 of strand 2
B3: weak E-box CGCAA|ATG 28-mer 5caC(a)|5caC(b) (dsDNA)
DNA 1: CTGACCCATACGCAAATGTCTGACTGAC
DNA 2: GTCAGTCAGACATTTGCGTATGGGTCAG
modifications: 5caC at C11 of strand 1 and C17 of strand 2

What was measured:
Assay in all cases: EMSA
[1] = target: T1, Tcf3 B-HLH domain (E47);Ascl1 B-HLH …
[2] = target: Tcf4 B-HLH domain;Ascl1 B-HLH domain (;, UniProt Q60722;Q02067 ;, |)
[3] = target: T1, Tcf3 B-HLH domain (E47);Ascl1 B-HLH …; remark: listed apart in the source
[4] = target: Tcf12 B-HLH domain;Ascl1 B-HLH domain (;, UniProt Q61286;Q02067 ;, |)
Tcf12 B-HLH domain = Tcf12 B-HLH domain (UniProt Q61286)
Ascl1 B-HLH domain = target: T2, Ascl1 B-HLH domain
Tcf3 B-HLH domain (E47) = target: T3, Tcf3 B-HLH domain (E47)
Tcf4 B-HLH domain = Tcf4 B-HLH domain (UniProt Q60722)

Binder | binding signal [1] | binding signal [2] [fold binding vs N1] | binding signal [3] [fold binding vs N1] | binding signal [4] [fold binding vs N1] | binding signal (Tcf12 B-HLH domain) [fold binding vs N1] | binding signal (Ascl1 B-HLH domain) [fold binding vs N1] | binding signal (Tcf3 B-HLH domain (E47)) [fold binding vs N1] | binding signal (Tcf4 B-HLH domain) [fold binding vs N1]
B1 | ~100 fold weaker than N1 | – | – | – | – | – | – | –
B2 | – | ~6 | ~10 | ~10 | ~4 | ~6 | ~2 | ~3
B3 | ~10 fold binding vs N8 | – | – | – | – | – | – | –
